Measured values from patent US20240390418A1 (MINERVA BIOTECHNOLOGIES, published 2024).
One block for each binder: values may come before it.

B4: N-10 peptide (peptide)
peptide: QFNQYKTEAASRYNLTISDVSVSDVPFPFSAQSGA
notes: also called PSMGFR N-10; PSMGFR minus 10 amino acids from the N-terminus

What was measured:
N-10 peptide [1] = molecular target: B4; assay: peptide ELISA
PSMGFR peptide [2] = molecular target: T1, PSMGFR peptide; assay: ELISA, peptide on plate (FIG. 65)
T1 construct: also called MUC1* peptide
T1 peptide: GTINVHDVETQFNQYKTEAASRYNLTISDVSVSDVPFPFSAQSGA

N-10 peptide [3] = molecular target: B4; assay: peptide ELISA, told in tissue legend
PSMGFR peptide [4] = molecular target: T1, PSMGFR peptide; assay: peptide ELISA, told in tissue legend
N+9/C-9 peptide = molecular target: T2, N+9/C-9 peptide; assay: ELISA, peptide on plate (FIG. 64)
T2 peptide: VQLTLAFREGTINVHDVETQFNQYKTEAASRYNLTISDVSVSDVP

[5] = molecular target: T3, MUC1* expressed on HCT-116 cells transfected with MUC1* (extra cellular domain is just the PSMGFR sequence) (Homo sapiens (Human), UniProt P15941 1110-1255); assay: denaturing Western blot of cell lysates (FIG. 72)
T3 construct: In Western blot rows the same protein stood denatured in cell lysate; also called HCT-MUC1*; HCT-FLR
T3 sequence: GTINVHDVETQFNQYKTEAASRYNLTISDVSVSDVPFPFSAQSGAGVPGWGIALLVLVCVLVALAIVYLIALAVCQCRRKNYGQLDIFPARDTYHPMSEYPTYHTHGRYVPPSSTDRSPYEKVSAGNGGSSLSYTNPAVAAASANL
Experimental: Antibodies were tested to determine whether they recognize a linear or a conformational epitope. Only antibodies that recognize a linear epitope work in Western blots when using denaturing gels. […] The antibodies tested for comparison are MNC2 and MNE6, which were known to only recognize a conformational epitope, SDIX which is a polyclonal antibody raised against PSMGFR and VU4H5, which is a commercially available monoclonal antibody that recognizes the tandem repeats of full-length MUC1 (FIG. 71A-71D). […] The SDIX polyclonal antibody recognizes HCT-MUC1* but not full-length MUC1 and VU4H5 only recognizes full-length MUC1. These same antibodies were also tested for their ability to work in Western blots of two breast cancer cell lines 1500, aka Zr-75-1, and T47D cells and show the same binding pattern (FIG. 71E-71H).
(§1) Antibodies that were raised against the PSMGFR peptide were tested the same way in Western blots (FIG. 72A-72P). […] Antibodies that were raised against the N+20/C-27 peptide were tested the same way in Western blots (FIG. 73A-73J). […] Antibodies 1E4 and 45C11 may recognize a conformational epitope. Antibodies that were raised against the N+9/C-9 peptide were tested the same way in Western blots (FIG. 74A-74H). […] These antibodies may recognize a conformational epitope.

PSMGFR peptide [6] = molecular target: T1, PSMGFR peptide; assay: ELISA, peptide on plate (FIG. 2B)
Experimental: FIGS. 2A-2I show results of ELISA assays. MUC1* peptides PSMGFR, PSMGFR minus 10 amino acids from the N-terminus aka N-10, or PSMGFR minus 10 amino acids from the C-terminus, aka C-10 are immobilized on the plate and the following are assayed for binding: NME7-AB (FIG. 2A), MNC2 monoclonal antibody (FIG. 2B), MNE6 monoclonal antibody (FIG. 2C), or dimeric NME1 (FIG. 2D). […] MUC1* peptides PSMGFR minus 10 amino acids from the N-terminus aka N-10, or PSMGFR minus 10 amino acids from the C-terminus, aka C-10, are immobilized on the plate and the following are assayed for binding: MNC3 (FIG. 2E) and MNC8 (FIG. 2F).

N-10 peptide [7] = molecular target: B4; assay: ELISA, peptide on plate (FIG. 2B-2C)
N+20/C-27 peptide = molecular target: T4, N+20/C-27 peptide; assay: ELISA, peptide on plate (FIG. 63)
T4 peptide: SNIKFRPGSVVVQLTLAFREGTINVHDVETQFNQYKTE
Experimental: ELISA assays were performed to determine if, in addition to recognizing their immunizing peptide, they recognized PSMGFR, N-10 or C-10. In addition, they were tested for their ability to bind to N+20/C-27, N+9/C-9. We first did the ELISA assay on our set of reference antibodies, MNC2, MNE6, which we know are cancer-specific plus MNC3, which we know recognizes stem cells and progenitor cells (FIG. 63A-63B). None of the reference antibodies bound to the N+20/C-27 peptide. MNC2 and MNE6 cannot bind to PSMGFR peptides with 27, 10 or 9 C-terminal deletions, however, MNC3 binds to C-10 and to N+9/C-9 peptides.

[8] = molecular target: T3, MUC1* expressed on HCT-116 cells …; assay: flow cytometry, HCT-116 cells transfected with MUC1* (FIG. 35B)
C-10 peptide [9] = molecular target: T5, C-10 peptide; assay: ELISA, peptide on plate (FIG. 64)
T5 construct: also called PSMGFR C-10; PSMGFR minus 10 amino acids from the C-terminus
T5 peptide: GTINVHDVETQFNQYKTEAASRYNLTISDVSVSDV

NME7AB = molecular target: T6, NME7AB (Homo sapiens (Human), UniProt Q9Y5B8 92-376); assay: ELISA, peptide on plate (FIG. 2A-2D)
T6 construct: NME7A in the text appears to be NME7AB; also called NM23-H7; NME7A
T6 sequence: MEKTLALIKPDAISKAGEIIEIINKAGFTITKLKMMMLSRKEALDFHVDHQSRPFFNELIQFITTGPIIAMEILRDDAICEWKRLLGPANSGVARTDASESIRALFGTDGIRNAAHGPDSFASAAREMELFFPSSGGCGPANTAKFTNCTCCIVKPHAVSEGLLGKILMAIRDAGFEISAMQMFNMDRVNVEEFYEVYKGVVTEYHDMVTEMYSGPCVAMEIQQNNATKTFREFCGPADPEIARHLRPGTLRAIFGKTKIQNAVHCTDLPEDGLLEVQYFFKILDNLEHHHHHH

N-10 peptide [10] = molecular target: B4; assay: ELISA, peptide on plate (FIG. 201B)
Experimental: (§2) FIG. 201A-201C show graphs of ELISA assays to determine the binding of another set of antibodies generated by immunizing animals with the PSMGFR peptide. […] F3, B12, B2, B7, B9, 8C7F3 and H11 all bound to the PSMGFR peptide and to the N-10 peptide.
(§3) This same ELISA assay was performed on the antibodies of the invention (FIGS. 64-66 and FIG. 201). Note that only 20A10 exactly matches the binding profile of MNC2 and MNE6. 25E6, 28F9 and 18G12 are all able to bind to the N-10 peptide. 18B4 is the only antibody raised against the PSMGFR peptide that requires the 10 most N-terminal amino acids of the peptide. The color of the bars for each antibody in the ELISA graph are color coded to match the deductive cognate sequence, or a portion thereof, of that antibody. In addition, another set of antibodies was assayed by ELISA (FIG. 201). Of this set, B12, B2, B7, B9, 8C7F3, and H11 bound to the PSMGFR peptide, bound to the N-10 peptide, but not to the C-10 peptide (FIG. 201). Although these antibodies were raised against the N+20/C-27 peptide, all but one, 45C11, still bind to the PSMGFR peptide, albeit at the N-terminal portion of PSMGFR.

PSMGFR peptide [11] = molecular target: T1, PSMGFR peptide; assay: ELISA, peptide on plate (FIG. 201A)
Experimental: as §2, §3

C-10 peptide [12] = molecular target: T5, C-10 peptide; assay: ELISA, peptide on plate (FIG. 201)
PSMGFR peptide [13] = molecular target: T1, PSMGFR peptide; assay: peptide ELISA
[14] = molecular target: T3, MUC1* expressed on HCT-116 cells …; assay: denaturing Western blot of cell lysates, longer exposure (FIG. 72G, 72H, 72O, 72P)
Description: All these antibodies were raised against the PSMGFR peptide and bind to the PSMGFR peptide. […] FIG. 72A and FIG. 72I show 20A10. FIG. 72B and FIG. 72J show 25E6. FIG. 72C and FIG. 72K show 18B4. FIG. 72D and FIG. 72L show 18G12. FIG. 72E and FIG. 72M show 28F9. FIG. 72F and FIG. 72N show 3C2B1. FIG. 72G and FIG. 72O show 5C6F3. FIG. 72H and FIG. 72P show 5C6F3 wherein the blot has been exposed for a longer time period to render more visible the MUC1* specific bands.
as §1

binding result (N-10 peptide [1]): no binding
binding result (PSMGFR peptide [2]): no binding
B1: monoclonal antibody 45C11 (antibody, V domains shown)
VH: EVQLQQSGADLVKPGASVKLSCTASGFNIKDTFMHWVKQRPEQGLEWIGRIDPANGNTKYDPKFQGKATITADTSSNTAYLQLSSLTSEDTAVYYCAKPYGNYGYYYALDYWGQGTSVTVSS
VL: DVQITQSPSYLAASPGETITINCRASKSISKYLAWYQEKPGKTNKLLIYSGSTLQSGIPSRFSGSGSGTDFTLTISSLEPEDFAMYYCQQHNEFPWTFGGGTKLEIK
notes: Raised against the N+20/C-27 peptide; also called N+20/C-27 antibody 45C11

binding result (N-10 peptide [3]): binds
binding result (PSMGFR peptide [4]): binds
binding result (N+9/C-9 peptide): binds
binding result [5]: binds
B2: monoclonal antibody 25E6 (antibody, V domains shown)
VH: EVQLVESGGDLVKPGGSLKLSCAASGFTFSSYGMSWVRQTPDKRLEWVATISNGGRHTFYPDSVKGRFTISRDNAKNTLYLQMSSLKSEDTAMYLCVRQTGTEGWFAYWGQGTLVTVSA
VL: not shown
notes: Raised against PSMGFR; also called MN25E6; anti-PSMGFR antibody 25E6

binding result (PSMGFR peptide [6]): binds
binding result (N-10 peptide [7]): binds
binding result (N+20/C-27 peptide): no binding
binding result [8]: binds
binding result (N+9/C-9 peptide): no binding
binding result (C-10 peptide [9]): no binding
B3: mouse monoclonal antibody MNC2 (antibody, V domains shown)
VH: EVQLEESGGGLVKPGGSLKLSCAASGFTFSGYAMSWVRQTPEKRLEWVATISSGGTYIYYPDSVKGRFTISRDNAKNTLYLQMSSLRSEDTAMYYCARLGGDNYYEYFDVWGAGTTVTVSS
VL: DIVITQSTASLGVSLGQRATISCRASKSVSTSGYSYMHWYQQRPGQPPKLLIYLASNLESGVPARFSGSGSGTDFTLNIHPVEEEDAATYYCQHSRELPFTFGGGTKLEIKR
notes: Mouse monoclonal raised against the PSMGFR peptide; also called Min-C2; MNC2-scFv (label in some tissue legends)

Binder: B4
binding result (NME7AB): binds

binding result (N-10 peptide [10]): binds
binding result (PSMGFR peptide [11]): binds
binding result (C-10 peptide [12]): no binding
B5: monoclonal antibody H11 (antibody, V domains shown)
VH: EVVLVESGGGLVEPGGSLKLSCVASGFAFSTFAMSWIRQTPEKRLEWVAAISNGGGYTYYPDTLKGRFTISRDNAKNTLYLQMSSLRSEDTAVYYCARRYYDLYFDLWGQGTSLIVSS
VL: DILMTQTPLSLPVSLGDQASISCRSSQNIVHSNGNTYLEWYLQKPGQSPKLLIYKVSNRFSGVPDRFSGSGSGTDFTLKISRVEAEDLGVYYCFQDSHVPLTFGAGTRLELK
notes: Raised against PSMGFR

binding result (N-10 peptide [1]): binds
binding result (PSMGFR peptide [13]): binds
binding result [14]: binds
B6: monoclonal antibody 5C6F3 (antibody, V domains shown)
VH: EVMLVESGGGLVKPGGSLKLSCAASGFTFSTYAMSWVRQTPEKRLEWVAAISNGGGYTYYPDSLKGRFTISRDNAKNTLYLQMSSLRSEDTATYYCARRYYDHYFDYWGQGTALTVSS
VL: DVLMTQTPLSLPVSLGDQASISCRSSQTIVHSNGNTYLEWYLQKPGQSPKLLIYKVSNRFSGVPDRFSGSGSGTDFTLKISRVEAEDLGVYYCFQDSHVPLTFGAGTKLELK
notes: Raised against PSMGFR; also called MN5C6F3; anti-PSMGFR antibody 5C6F3
